These are literature values, as cited in publication PMC2174977.

In this series the target is chemoreceptor (Tar) (Escherichia coli) (UniProt P07017).
UniProt P07017, sequence (P07017 whole entry): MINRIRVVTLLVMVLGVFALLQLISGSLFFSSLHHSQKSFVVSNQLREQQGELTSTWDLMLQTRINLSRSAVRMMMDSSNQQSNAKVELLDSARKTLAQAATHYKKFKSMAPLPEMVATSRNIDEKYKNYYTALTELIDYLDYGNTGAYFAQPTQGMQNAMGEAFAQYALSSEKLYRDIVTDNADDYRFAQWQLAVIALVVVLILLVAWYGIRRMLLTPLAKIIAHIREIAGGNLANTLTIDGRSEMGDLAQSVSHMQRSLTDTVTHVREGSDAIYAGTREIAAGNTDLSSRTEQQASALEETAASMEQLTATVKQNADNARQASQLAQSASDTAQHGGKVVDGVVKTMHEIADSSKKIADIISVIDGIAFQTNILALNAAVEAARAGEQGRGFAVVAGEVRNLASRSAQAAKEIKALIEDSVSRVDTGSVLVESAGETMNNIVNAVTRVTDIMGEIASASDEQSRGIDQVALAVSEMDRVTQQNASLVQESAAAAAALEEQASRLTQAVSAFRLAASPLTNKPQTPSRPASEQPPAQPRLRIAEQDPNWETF

The term Kd denotes the constant that tells how readily two partners part at equilibrium. Turning to CheR (from UniProt P07364), the dissociation constant (Kd) is 11 µM.
